In patent publication US20050026233A1, “Methods of monitoring and modulating LKB1 activity and its downstream targets” (Medical Research Council, priority 2003, published 2005):

Tests used:
AMPK (α1β1γ1) = target: T1, AMPK (α1β1γ1) (Rattus norvegicus, UniProt P54645); assay: Activation of bacterially expressed AMPK by upstream kinase, SAMS peptide assay; format: biochemical, mammalian; settings: recombinant AMPK α1β1γ1, MgATP, 30 min at 30° C
T1 construct: made in house; host or cells: bacteria (E. coli per the title of Neumann 2003)
T1 sequence (P54645 13-559 limits assumed): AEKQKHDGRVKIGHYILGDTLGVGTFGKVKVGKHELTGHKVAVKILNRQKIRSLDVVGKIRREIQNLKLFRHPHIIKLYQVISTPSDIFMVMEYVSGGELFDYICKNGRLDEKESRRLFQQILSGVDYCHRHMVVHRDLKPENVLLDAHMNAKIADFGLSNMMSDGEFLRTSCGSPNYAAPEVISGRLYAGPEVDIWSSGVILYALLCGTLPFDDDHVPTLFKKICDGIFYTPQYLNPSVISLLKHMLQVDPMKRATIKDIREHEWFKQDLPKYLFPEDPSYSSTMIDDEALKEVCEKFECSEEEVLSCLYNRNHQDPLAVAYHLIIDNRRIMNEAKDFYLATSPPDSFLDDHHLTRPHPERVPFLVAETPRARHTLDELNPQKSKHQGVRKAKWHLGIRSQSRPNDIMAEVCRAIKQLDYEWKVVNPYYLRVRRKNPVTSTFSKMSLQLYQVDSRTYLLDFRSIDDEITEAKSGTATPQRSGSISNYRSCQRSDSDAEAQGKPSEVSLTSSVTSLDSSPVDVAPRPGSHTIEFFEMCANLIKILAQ
T1 sequence (P80386 whole entry partner): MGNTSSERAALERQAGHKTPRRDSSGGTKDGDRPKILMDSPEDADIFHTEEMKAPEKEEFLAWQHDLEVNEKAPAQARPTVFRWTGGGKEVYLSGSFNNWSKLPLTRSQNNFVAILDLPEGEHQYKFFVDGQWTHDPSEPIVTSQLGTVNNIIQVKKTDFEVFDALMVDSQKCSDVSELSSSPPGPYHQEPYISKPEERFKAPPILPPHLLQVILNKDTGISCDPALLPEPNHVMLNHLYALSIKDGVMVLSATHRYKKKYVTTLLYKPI
T1 sequence (P80385 whole entry partner): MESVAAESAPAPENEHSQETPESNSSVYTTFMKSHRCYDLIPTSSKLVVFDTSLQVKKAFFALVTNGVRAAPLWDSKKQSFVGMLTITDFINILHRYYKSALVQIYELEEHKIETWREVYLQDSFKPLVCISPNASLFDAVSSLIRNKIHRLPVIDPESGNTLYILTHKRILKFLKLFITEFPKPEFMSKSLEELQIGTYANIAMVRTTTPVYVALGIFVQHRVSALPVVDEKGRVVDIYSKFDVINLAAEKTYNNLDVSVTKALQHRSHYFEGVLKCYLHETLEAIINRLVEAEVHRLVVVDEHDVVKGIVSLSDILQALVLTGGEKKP
Method: FIG. 4. Tos3p and LKB1 phosphorylate and activate AMPK in vitro. (A) Bacterially expressed AMPK (α1β1γ1 (Neumann, 2003)) was incubated with MgATP and GST-kinase bound to glutathione-Sepharose for 30 min at 30° C. Following centrifugation to remove the resin, AMPK activity in the supernatant was measured using the SAMS peptide assay (Davies, 1989).
The beads were removed by centrifugation, and proteins in the supernatant were analyzed by SDS-PAGE and autoradiography. Molecular size markers (kDa) are indicated. (C) Bacterially expressed AMPK (0.15 μg) was phosphorylated by GST-Tos3p and analysed by immunoblotting with anti-phosphothreonine 172 specific antibody (Cell Signalling Technologies). […]
Recombinant AMPK (α1β1γ1) expressed in bacteria (Neumann, 2003) was incubated with each of the kinases and MgATP, and AMPK activity was determined using the SAMS peptide assay. […]
Following centrifugation to remove the resin, AMPK activity in the supernatant was measured using the SAMS peptide assay (Davies, 1989).
Bacterially expressed AMPK (α1β1γ1) was purified by chromatography using Ni-NTA agarose (Qiagen) as previously described (the purification is as in Neumann et al., 2003 Protein Expression and Purification, incorporated herein by reference). […] Following brief centrifugation, the supernatant containing AMPK was removed and activity measured using the SAMS peptide assay (Davies et al., 1989). […]

AMPK = assay: Phosphorylation of T172 of AMPK by immunoblotting with anti-phosphothreonine 172 antibody; format: biochemical, mammalian; settings: immunoblot
Sequence of AMPK (P54645 13-559 limits assumed): as the sequence (P54645 13-559 limits assumed) above
Sequence of AMPK (P80386 whole entry partner): as the sequence (P80386 whole entry partner) above
Sequence of AMPK (P80385 whole entry partner): as the sequence (P80385 whole entry partner) above
Method: The beads were removed by centrifugation, and proteins in the supernatant were analyzed by SDS-PAGE and autoradiography. Molecular size markers (kDa) are indicated. (C) Bacterially expressed AMPK (0.15 μg) was phosphorylated by GST-Tos3p and analysed by immunoblotting with anti-phosphothreonine 172 specific antibody (Cell Signalling Technologies). AMPK was also incubated with GST or partially purified rat liver AMPKK (Hawley, 1996).
Phosphorylation of T172 was determined by immunoblotting (FIG. 4E).
Bacterially expressed AMPK (α1β1γ1) was purified by chromatography using Ni-NTA agarose (Qiagen) as previously described (the purification is as in Neumann et al., 2003 Protein Expression and Purification, incorporated herein by reference). AMPK was incubated with 100 μM ATP, 5 mM MgCl2, 200 μM AMP and 1 mM DTT in 50 mM Hepes, pH 7.4 in the presence or absence of upstream kinase for 30 min at 30° C. Following brief centrifugation, the supernatant containing AMPK was removed and activity measured using the SAMS peptide assay (Davies et al., 1989). Phosphorylation of T172 was determined by Western blotting using an antibody that specifically recognizes phospho-threonine 172 within the α subunit of AMPK (Cell Signaling Technologies).

B1: LKB1: FLAG-tagged full length wild-type mouse LKB1 tumor suppressor kinase purified from COS7 cell lysates (protein, UniProt Q9WTK7 1-436, looked up)
chain: MDVADPEPLGLFSEGELMSVGMDTFIHRIDSTEVIYQPRRKRAKLIGKYLMGDLLGEGSYGKVKEVLDSETLCRRAVKILKKKKLRRIPNGEANVKKEIQLLRRLRHRNVIQLVDVLYNEEKQKMYMVMEYCVCGMQEMLDSVPEKRFPVCQAHGYFRQLIDGLEYLHSQGIVHKDIKPGNLLLTTNGTLKISDLGVAEALHPFAVDDTCRTSQGSPAFQPPEIANGLDTFSGFKVDIWSAGVTLYNITTGLYPFEGDNIYKLFENIGRGDFTIPCDCGPPLSDLLRGMLEYEPAKRFSIRQIRQHSWFRKKHPLAEALVPIPPSPDTKDRWRSMTVVPYLEDLHGRAEEEEEEDLFDIEDGIIYTQDFTVPGQVLEEEVGQNGQSHSLPKAVCVNGTEPQLSSKVKPEGRPGTANPARKVCSSNKIRRLSACKQQ
modifications: full-length FLAG tag
notes: FLAG-tagged full length wild-type mouse LKB1 tumor suppressor kinase purified from COS7 cell lysates
AMPK (α1β1γ1)
  AMPK activity after incubation with upstream kinase: activated recombinant AMPK
AMPK
  Phosphorylation of AMPK on T172: phosphorylated T172
